Laboratory results as given in patent publication US20230070786A1 (SPIBER TECHNOLOGIES, published 2023).

Target: the molecule itself
Experiment: size exclusion chromatography, self-association
Experimental: The inventors designed a minispidroin composed of NT from E. australis MaSp1 and CT from A. ventricosus MiSp bracketing a short repetitive region from E. australis. The chimeric NT2RepCT protein was produced at unprecedented high levels in shake flask E. coli cultures and the yield after purification was around 125 mg protein/L cell culture. Nearly all protein was soluble after expression and lysis, and bound efficiently to the Ni-NTA column (FIG. 2A). The eluate contained >95% pure NT2RepCT and the size of the protein on the SDS PAGE gel corresponded well to the expected molecular mass (33 kDa) (FIG. 2A). Size-exclusion chromatography indicated a mass of 100 kDa (FIG. 6), in good agreement with a dimer (due to the constitutive dimeric nature of CT) and a non-globular structure of the repetitive part.
A Superdex 200 HR column (Amersham Biosciences) was used to run 200 μl of purifed protein sample in TBS running buffer (20 mM Iris, 150 mM NaCl and 1 mM EDTA, pH 8.0). The flow rate used was 0.5 ml/min. Molecular mass standards Ribonuclease A (13.7 kDa), Carbonic anhydrase (29 kDa), Ovalbumin (43 kDa), Conalbumin (75 kDa), Aldolase (158 kDa) and Ferritin (440 kDa) were used for calibration.

B1: NT2RepCT (other)
chain: MGHHHHHHMSHTTPWTNPGLAENFMNSFMQGLSSMPGFTASQLDDMSTIAQSMVQSIQSLAAQGRTSPNKLQALNMAFASSMAEIAASEEGGGSLSTKTSSIASAMSNAFLQTTGVVNQPFINEITQLVSMFAQAGMNDVSAGNSGRGQGGYGQGSGGNAAAAAAAAAAAAAAAGQGGQGGYGRQSQGAGSAAAAAAAAAAAAAAGSGQGGYGGQGQGGYGQSGNSVTSGGYGYGTSAAAGAGVAAGSYAGAVNRLSSAEAASRVSSNIAAIASGGASALPSVISNIYSGVVASGVSSNEALIQALLELLSALVHVLSSASIGNVSSVGVDSTLNVVQDSVGQYVG
notes: Engineered chimeric spidroin made in E. coli and tested with its His tag; also called chimeric minispidroin NT2RepCT; chimeric NT2RepCT protein
- binding result: binds
